# From the supplement of paper PMC10724198
# ± gives the standard deviation of the averaged measurements.
# Assays:
# Saccharomyces cerevisiae [1] = assay: protein stability index of tFT-peptide fusion (C-terminal peptide) (PSI (0-1 scale)); higher = more stable (slower turnover)
# Method: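 MPS profiling in S. cerevisiae of the tFT-X12 degron library: putative degron peptides plus stable controls, 12 aa, fused to the C-terminus of a sfGFP-mCherry timer. Cells are FACS-sorted into 8 mCherry/sfGFP bins and deep-sequenced. PSI runs from 0 (unstable) to 1 (stable). Backgrounds are wild type, das1Δ and doa10Δ at 30 °C, and wild type, das1Δ, cdc34-1 and cdc53-1 at 37 °C; 2-3 technical replicates each.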
# Saccharomyces cerevisiae [2] = assay: as above; conditions: genetic background: wild type; temperature: 30 C
# [3] = genetic background: cdc34-1, temperature: 37 C
# [4] = genetic background: cdc53-1, temperature: 37 C
# [5] = genetic background: das1 deletion, temperature: 30 C
# [6] = genetic background: das1 deletion, temperature: 37 C
# [7] = genetic background: doa10 deletion, temperature: 30 C
# [8] = genetic background: wild type, temperature: 30 C
# [9] = genetic background: wild type, temperature: 37 C
# 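Also: PSI is a weighted mean of sequencing reads over stability bins, variants kept only with over 10 reads, mCherry proximal and sfGFP distal, peptide attached via GGGS linker.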
Sequence,protein stability index (Saccharomyces cerevisiae [1]; [3]),protein stability index (Saccharomyces cerevisiae [1]; [4]),protein stability index (Saccharomyces cerevisiae [1]; [5]),protein stability index (Saccharomyces cerevisiae [1]; [6]),protein stability index (Saccharomyces cerevisiae [1]; [7]),protein stability index (Saccharomyces cerevisiae [1]; [8]),protein stability index (Saccharomyces cerevisiae [1]; [9]),protein stability index (Saccharomyces cerevisiae [2])
WFIFTITSVAGL,0.0307 ± 0.009,0.0301 ± 0.0014,0.0273 ± 0.0031,0.0442 ± 0.015,0.0226 ± 0.0015,0.0205 ± 0.0016,0.0325 ± 0.011,0.0312 ± 0.023
WFLRLVGAVFAL,0.539 ± 0.012,0.624 ± 0.039,0.528 ± 0.016,0.621 ± 0.018,0.46 ± 0.0085,0.485 ± 0.025,0.551 ± 0.032,0.447 ± 0.027
WFVLYAEVMGFW,0.205 ± 0.041,0.325 ± 0.043,0.241 ± 0.037,0.491 ± 0.09,0.207 ± 0.029,0.231 ± 0.042,0.409 ± 0.024,0.349 ± 0.0052
WGRAADRRRRLG,0.633 ± 0.054,0.731 ± 0.039,0.628 ± 0.011,0.7658 ± 0.0054,0.152 ± 0.0034,0.207 ± 0.013,0.344 ± 0.018,0.346 ± 0.025
WGRENLTRVKLE,0.70486 ± 0.00049,0.769 ± 0.0032,0.618 ± 0.049,0.725 ± 0.0082,0.207 ± 0.015,0.2 ± 0.017,0.424 ± 0.035,0.372 ± 0.061
WILIGVRFSCFG,0.109 ± 0.0085,0.233 ± 0.069,0.189 ± 0.034,0.339 ± 0.015,0.159 ± 0.013,0.165 ± 0.021,0.276 ± 0.018,0.299 ± 0.0058
WISDRCPSVLCY,0.0407 ± 0.0022,0.0838 ± 0.0009,0.185 ± 0.025,0.206 ± 0.011,0.143 ± 0.011,0.157 ± 0.028,0.184 ± 0.017,0.251 ± 0.015
WLPFFPLSLRGV,0.321 ± 0.012,0.317 ± 0.011,0.412 ± 0.027,0.5374 ± 0.0038,0.63 ± 0.0096,0.436 ± 0.048,0.5 ± 0.0093,0.497 ± 0.2
WLWFVGCLAAPL,0.63 ± 0.032,0.662 ± 0.066,0.529 ± 0.024,0.6316 ± 0.001,0.523 ± 0.021,0.536 ± 0.04,0.5957 ± 0.0016,0.541 ± 0.07
WQGLSGSPILVI,0.197 ± 0.012,0.248 ± 0.015,0.247 ± 0.037,0.3829 ± 0.0012,0.206 ± 0.0061,0.241 ± 0.048,0.334 ± 0.013,0.402 ± 0.016
WQILVRLIDFYT,0.453 ± 0.011,0.446 ± 0.023,0.345 ± 0.034,0.5107 ± 0.0039,0.311 ± 0.0072,0.338 ± 0.0092,0.4889 ± 0.00098,0.436 ± 0.0055
WSSWFLWVIFRL,0.176 ± 0.011,0.173 ± 0.023,0.34 ± 0.035,0.433 ± 0.056,0.459 ± 0.0077,0.289 ± 0.035,0.288 ± 0.035,0.348 ± 0.02
WSWCLDVVCFTS,0.498 ± 0.036,0.547 ± 0.027,0.45 ± 0.021,0.563 ± 0.019,0.446 ± 0.011,0.439 ± 0.011,0.531 ± 0.024,0.471 ± 0.0059
WVGWVVVLGCVG,0.373 ± 0.027,0.42 ± 0.012,0.29 ± 0.026,0.47 ± 0.013,0.25152 ± 0.00025,0.282 ± 0.018,0.449 ± 0.022,0.489 ± 0.013
WVRIIIKLRASL,0.444 ± 0.011,0.4476 ± 0.0035,0.34 ± 0.021,0.41 ± 0.0083,0.274 ± 0.0048,0.253 ± 0.011,0.345 ± 0.034,0.315 ± 0.041
WVSFFILYCVYR,0.274 ± 0.016,0.345 ± 0.024,0.253 ± 0.04,0.445 ± 0.017,0.23 ± 0.0055,0.237 ± 0.018,0.378 ± 0.011,0.232 ± 0.03
WWADRLVGVCIV,0.55 ± 0.034,0.539 ± 0.026,0.439 ± 0.024,0.587 ± 0.0076,0.38961 ± 2.3e-05,0.422 ± 0.023,0.5359 ± 0.00088,0.491 ± 0.011
WYYTWKQLVMIV,0.0845 ± 0.01,0.148 ± 0.0062,0.106 ± 0.023,0.186 ± 0.0072,0.0276 ± 0.0037,0.0263 ± 0.0054,0.0433 ± 0.021,0.0294 ± 0.022

Sequence,protein stability index (Saccharomyces cerevisiae [1]; [3]),protein stability index (Saccharomyces cerevisiae [1]; [4]),protein stability index (Saccharomyces cerevisiae [1]; [5]),protein stability index (Saccharomyces cerevisiae [1]; [6]),protein stability index (Saccharomyces cerevisiae [1]; [7]),protein stability index (Saccharomyces cerevisiae [1]; [8]),protein stability index (Saccharomyces cerevisiae [1]; [9]),protein stability index (Saccharomyces cerevisiae [2])
YARFWYSKAFIC,0.455 ± 0.048,0.555 ± 0.011,0.581 ± 0.033,0.694 ± 0.025,0.12 ± 0.023,0.115 ± 0.012,0.169 ± 0.0034,0.2 ± 0.013
YCILGSYRLCVG,0.337 ± 0.037,0.434 ± 0.073,0.259 ± 0.033,0.447 ± 0.018,0.2321 ± 0.00024,0.252 ± 0.033,0.427 ± 0.012,0.36 ± 0.0049
YCSIQIQLVYGI,0.341 ± 0.0037,0.4103 ± 0.0034,0.302 ± 0.025,0.441 ± 0.0063,0.301 ± 0.0082,0.312 ± 0.013,0.396 ± 0.011,0.424 ± 0.023
YFFVCYFSLLVF,0.0832 ± 0.019,0.139 ± 0.025,0.14 ± 0.032,0.231 ± 0.012,0.0967 ± 0.0036,0.119 ± 0.016,0.168 ± 0.03,0.177 ± 0.0081
YFYIRLGIAYMM,0.421 ± 0.037,0.511 ± 0.056,0.436 ± 0.026,0.503 ± 0.019,0.197 ± 0.013,0.206 ± 0.019,0.264 ± 0.015,0.275 ± 0.027
YILRLMMEGICL,0.497 ± 0.012,0.545 ± 0.036,0.416 ± 0.033,0.48 ± 0.019,0.422 ± 0.038,0.409 ± 0.0083,0.464 ± 0.022,0.4198 ± 0.0029
YLFFVCLHLKAG,0.233 ± 0.03,0.335 ± 0.018,0.227 ± 0.031,0.417 ± 0.013,0.174 ± 0.0063,0.206 ± 0.018,0.3494 ± 0.00053,0.302 ± 0.044
YLRVRRPGSALV,0.7087 ± 0.0013,0.769 ± 0.028,0.63 ± 0.022,0.7643 ± 0.0014,0.629 ± 0.035,0.624 ± 0.0081,0.7277 ± 0.0017,0.654 ± 0.23
YNKIRNNEKKMT,0.664 ± 0.084,0.696 ± 0.026,0.674 ± 0.073,0.7121 ± 0.0016,0.1897 ± 0.0018,0.27 ± 0.055,0.457 ± 0.043,0.36 ± 0.017
YPSCPINFICLC,0.618 ± 0.0088,0.6992 ± 0.0053,0.585 ± 0.017,0.685 ± 0.01,0.29 ± 0.0056,0.308 ± 0.037,0.499 ± 0.0051,0.417 ± 0.035
YRNVLLVLNYWS,0.447 ± 0.076,0.368 ± 0.029,0.428 ± 0.031,0.544 ± 0.0087,0.518 ± 0.0072,0.406 ± 0.022,0.51 ± 0.026,0.491 ± 0.0064
YSIHYLRFFSLF,0.4734 ± 0.00049,0.6669 ± 0.0066,0.6143 ± 0.0048,0.726 ± 0.014,0.0685 ± 0.011,0.0874 ± 0.015,0.0998 ± 0.011,0.133 ± 0.034
YSMLGKLVRLVT,0.553 ± 0.05,0.662 ± 0.02,0.512 ± 0.025,0.63036 ± 0.00022,0.164 ± 0.004,0.2 ± 0.013,0.374 ± 0.015,0.285 ± 0.033
YVCLVWHRNFFS,0.617 ± 0.014,0.704 ± 0.019,0.605 ± 0.011,0.73 ± 0.048,0.14 ± 0.0063,0.155 ± 0.025,0.228 ± 0.076,0.259 ± 0.0039
YVSSFSLVVLLS,0.425 ± 0.0077,0.478 ± 0.024,0.377 ± 0.033,0.506 ± 0.0069,0.108 ± 0.015,0.125 ± 0.014,0.217 ± 0.017,0.228 ± 0.029
YVVCFFFKLFYF,0.271 ± 0.012,0.364 ± 0.024,0.299 ± 0.025,0.4172 ± 0.0025,0.256 ± 0.0065,0.244 ± 0.025,0.341 ± 0.024,0.382 ± 0.046
YVVYLQVCWMRS,0.072 ± 0.025,0.206 ± 0.076,0.134 ± 0.019,0.23 ± 0.0061,0.0911 ± 0.019,0.104 ± 0.035,0.186 ± 0.024,0.227 ± 0.0044
